Measurements: patent publication US20260097101

Legend:
[1] = molecular target: Native pancreatic polypeptide (PP)

B1: purified porcine DPP-4 (dipeptidyl peptidase-4) (protein)
chain: DSRRTYTLTDYLKSTFRVKFYTLQWISDHEYLYKQENNILLFNAEYGNSSIFLENSTFDELGYSTNDYSVSPDRQFILFEYNYVKQWRHSYTASYDIYDLNKRQLITEERIPNNTQWITWSPVGHKLAYVWNNDIYVKNEPNLSSQRITWTGKENVIYNGVTDWVYEEEVFSAYSALWWSPNGTFLAYAQFNDTEVPLIEYSFYSDESLQYPKTVRIPYPKAGAENPTVKFFVVDTRTLSPNASVTSYQIVPPASVLIGDHYLCGVTWVTEERISLQWIRRAQNYSIIDICDYDESTGRWISSVARQHIEISTTGWVGRFRPAEPHFTSDGNSFYKIISNEEGYKHICHFQTDKSNCTFITKGAWEVIGIEALTSDYLYYISNEHKGMPGGRNLYRIQLNDYTKVTCLSCELNPERCQYYSASFSNKAKYYQLRCFGPGLPLYTLHSSSSDKELRVLEDNSALDKMLQDVQMPSKKLDVINLHGTKFWYQMILPPHFDKSKKYPLLIEVYAGPCSQKVDTVFRLSWATYLASTENIIVASFDGRGSGYQGDKIMHAINRRLGTFEVEDQIEATRQFSKMGFVDDKRIAIWGWSYGGYVTSMVLGAGSGVFKCGIAVAPVSKWEYYDSVYTERYMGLPTPEDNLDYYRNSTVMSRAENFKQVEYLLIHGTADDNVHFQQSAQLSKALVDAGVDFQTMWYTDEDHGIASNMAHQHIYTHMSHFLKQCFSLP
DPP-4 stability (degradation by purified DPP-4, 5 mU, 0-8 h; RP-HPLC and MALDI-ToF) [1]: <2 h
DPP-4 stability (degradation by purified DPP-4, 5 mU, 0-8 h; RP-HPLC and MALDI-ToF) ([P^3]PP): >8 h
